# Molecular target: the molecule itself
# Test: crystal structure
protein,measurement,value
SARS-CoV main protease (M^pro) (enzyme) SGFRKMAFPSGKVEGCMVQVTCGTTTLNGLWLDDTVYCPRHVICTAEDMLNPNYEDLLIRKSNHSFLVQAGNVQLRVIGHSMQNCLLRLKVDTSNPKTPKYKFVRIQPGQTFSVLACYNGSPSGVYQCAMRPNHTIKGSFLNGSCGSVGFNIDYDCVSFCYMHHMELPTGVHAGTDLEGKFYGPFVDRQTAQAAGTDTTITLNVLAWLYAAVINGDRWFLNRFTTTLNDFNLVAMKYNYEPLTQDHVDILGPLSAQTGIAVLDMCAALKELLQNGMNGRTILGSTILEDEFTPFDVVRQCSGVTFQ,binding result,binds

# Reference: paper PMC8061786 (Journal of Molecular Biology, 2021)
